According to US20130209481A1 (University of California, published 2013):

Columns and labels:
[1] = target: T1, yeast displayed CD44 link domain (CD44 ECD domain 1, aa 21-169) (Homo sapiens (Human), UniProt P16070 21-169); assay: fd phage antibody selected on yeast displayed antigen; screened by flow cytometry as in Examples 4 and 5
T1 construct: also called Y-CD44 D1; Y-CD44 ECD D1

[2] = target: T2, yeast displayed EphA2 extracellular domain (EphA2 ECD, aa 25-534) (Homo sapiens (Human), UniProt P29317 25-534); assay: as above
T2 construct: also called Y-EphA2; Y-EphA2 ECD
T2 sequence (P29317 25-534 limits assumed): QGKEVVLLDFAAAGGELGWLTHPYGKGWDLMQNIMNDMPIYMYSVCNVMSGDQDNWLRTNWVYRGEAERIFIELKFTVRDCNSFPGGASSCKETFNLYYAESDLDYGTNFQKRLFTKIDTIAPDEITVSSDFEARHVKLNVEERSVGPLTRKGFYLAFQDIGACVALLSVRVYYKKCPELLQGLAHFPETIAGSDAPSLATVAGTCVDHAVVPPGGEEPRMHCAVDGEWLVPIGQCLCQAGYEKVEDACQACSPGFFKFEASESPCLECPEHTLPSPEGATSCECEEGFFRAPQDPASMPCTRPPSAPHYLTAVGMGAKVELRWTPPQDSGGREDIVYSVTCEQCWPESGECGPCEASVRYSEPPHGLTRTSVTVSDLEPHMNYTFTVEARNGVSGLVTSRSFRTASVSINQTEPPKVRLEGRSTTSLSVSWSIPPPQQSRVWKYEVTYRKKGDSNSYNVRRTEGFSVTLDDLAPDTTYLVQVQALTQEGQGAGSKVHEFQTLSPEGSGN

[3] = target: T2, yeast displayed EphA2 extracellular …; assay: yeast displayed antigen incubated with 10^9 phage, titer of bound phage
[4] = target: T2, yeast displayed EphA2 extracellular …; assay: phage recovery: 10^11 phage with 10^8 yeast cells, elution and titration
[5] = target: T1, yeast displayed CD44 link domain (CD44 …); assay: yeast displayed antigen incubated with 10^9 phage, titer of bound phage (mismatched pair)
[6] = target: T3, EphA2 on the surface of MDAMB231 cells (native EphA2) (human, UniProt P29317 24-976); assay: flow cytometry of phage antibody on MDAMB231 cells
T3 construct: whole, on cells; from NP40 cell extracts in the immunoprecipitation; also called native antigen; receptor from cell extracts of MDAMB231 cells
T3 sequence (P29317 24-976): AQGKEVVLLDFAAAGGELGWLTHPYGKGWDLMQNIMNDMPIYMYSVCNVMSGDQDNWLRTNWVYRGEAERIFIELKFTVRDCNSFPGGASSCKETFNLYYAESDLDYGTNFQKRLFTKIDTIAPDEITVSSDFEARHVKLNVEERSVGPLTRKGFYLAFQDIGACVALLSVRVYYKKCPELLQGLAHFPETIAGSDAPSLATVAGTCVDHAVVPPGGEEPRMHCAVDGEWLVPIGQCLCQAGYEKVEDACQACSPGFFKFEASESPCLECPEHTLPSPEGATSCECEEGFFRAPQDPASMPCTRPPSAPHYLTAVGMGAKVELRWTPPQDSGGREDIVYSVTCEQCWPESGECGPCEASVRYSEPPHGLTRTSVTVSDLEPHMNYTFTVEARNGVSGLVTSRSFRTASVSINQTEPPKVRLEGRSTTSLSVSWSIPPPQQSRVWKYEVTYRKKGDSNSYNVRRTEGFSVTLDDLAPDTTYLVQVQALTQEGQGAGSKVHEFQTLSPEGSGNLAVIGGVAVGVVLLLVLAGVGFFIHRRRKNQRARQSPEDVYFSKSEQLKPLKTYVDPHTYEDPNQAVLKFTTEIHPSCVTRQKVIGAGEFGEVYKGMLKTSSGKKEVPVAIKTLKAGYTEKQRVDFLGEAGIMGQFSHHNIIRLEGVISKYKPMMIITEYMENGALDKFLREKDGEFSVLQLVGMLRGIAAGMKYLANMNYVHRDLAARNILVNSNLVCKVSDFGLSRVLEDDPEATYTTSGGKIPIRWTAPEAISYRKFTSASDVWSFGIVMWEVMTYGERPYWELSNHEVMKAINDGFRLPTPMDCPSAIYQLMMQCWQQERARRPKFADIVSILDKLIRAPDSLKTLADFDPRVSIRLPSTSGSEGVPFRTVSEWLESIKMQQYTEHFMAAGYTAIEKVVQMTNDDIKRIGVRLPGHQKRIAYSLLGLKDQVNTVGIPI

[7] = target: T2, yeast displayed EphA2 extracellular …; assay: flow cytometry of monoclonal phage antibody on yeast displayed EphA2 ECD
[8] = target: T1, yeast displayed CD44 link domain (CD44 …); assay: flow cytometry of monoclonal phage antibody on yeast displayed CD44 domain 1
[9] = target: T2, yeast displayed EphA2 extracellular …; assay: phagemid antibody selected on yeast displayed antigen; screened by flow cytometry as in Examples 4 and 5
[10] = target: T3, EphA2 on the surface of MDAMB231 cells …; assay: flow cytometry competition on MDAMB231 cells; competitors: phage antibodies D2-1A7 and D2-1A9

T1 sequence (P16070 21-169 limits assumed): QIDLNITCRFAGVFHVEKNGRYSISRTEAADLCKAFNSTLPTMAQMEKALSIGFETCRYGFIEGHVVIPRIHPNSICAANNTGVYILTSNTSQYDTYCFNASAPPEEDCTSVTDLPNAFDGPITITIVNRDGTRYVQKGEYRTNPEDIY

B1: E8H7 (scFv)
scFv: QVQLQESGGGLVQPGGSLRLSCSASGFTFSSYAMHWVRQAPGKGLEYVSAISSNGGSTYYADSVKGRFTISRDNSKNTLYLQMSSLRAEDTAVYYCVARLEWLPLAWDYWGQGTLVTVSSGGGGSGGGGSGGGGSSELTQDPAVSVALGQTVRITCQGDSLRSYYASWYQQKPGQAPVLVIYGKNNRPSGIPDRFSGSSSGNTASLTITGAQAEDEADYYCNSRDSSGNHKVFGGGTKLTVLG
notes: also called fd phage antibody E8H7
B1: binds [1].

B2: A3H9 (scFv)
scFv: QVLLVESGGGVVQAGASLRVSCAASGFSLTSYGMHWVRQAPGKGLEWVAFISSDGSDKYYVDSVKGRFTISRDTSKNMMYLQMNSLTTEDTAVYYCAKDWGSNWYLFDYWGQGTLVTVSSGGGGSGGGGSGGGGSQSVLTQPPSASETPGQRVTISCSGSSSNIGANTVHWYQQFPGTAPKLLIYSYSQRPSGVPDRFSDSKSGTSASLAISGLQSEDEADYYCAAWDDILNGWVFGGGTKVTVLG
notes: also called fd phage antibody A3H9
B2: binds [2].

B3: E8F11 (scFv)
scFv: QVQLQQSGGGLVQPGGSLRLSCAASGFTFSSYAMSWVRQAPVKGLEWVSAISGSGGSTYYADSVKGRFTISRDNSKNTLYLQMNSLRIEDTAVYYCGRHLSSGSSVDYWGQGTLVTVSSGGGGSGGGGSGGGGSSELTQPPSASGSPGQSVTISCTGTSSDVGGYNYVSWYQQRPGYAPKLMIYDVSNRPSGVSNRFSGSKSGNSASLDISGLQSEDEADYYCAAWDDSLREFLFGTGTKVTVLG
notes: also called fd phage antibody E8F11
B3: binds [1].

B4: anti-EphA2 human scFv 2D6 (scFv, V domains shown)
VH: QVQLQESGGGLVQPGGSLRLSCAASGFTFSSYAMSWVRQAPGKGLDWVSIIYNGDNTYYADSVKGRFTISRDNSKNSLYLQMNSLRAEDTAVYYCARWSGTSYDYWGQGTLVTVSS
VL: SELTQDPAVSVALGQTVRITCQGDSLRSYYASWYQQKPGQAPLLVIYGENNRPSGIPDRFSGSSSGNTASLTITGAQAEDEADYYCHSRDSSGTHLRVFGGGTKVTVLG
notes: scFv; soluble scFv with C-terminal (His)6 tag (pUC119mycHis) in the immunoprecipitation; also called anti-EphA2 phage antibody 2D6; PhAb-EphA2
For B4, the “PhAb Output/Input” value [3] was 0.06 ratio of output/input phage, the “fold recovery of phage against recovery from yeast displaying an irrelevant scFv (Y-CON)” value [4] was greater than 10000 fold and the “PhAb Output/Input” value [5] was 1e-06 ratio of output/input phage.

B5: anti-EphA2 human scFv D2-1A7 (scFv, V domains shown)
VH: QVQLQQSGGGVVQPGRSLRLSCAASGFTFSSYAMHWVRQAPGKGLEWVAVISYDGSNKYYADSVKGRFTISRDNSKNTLYLQMNSLRAEDTAVYYCARASVGATGPFDIWGQGTMVTVSS
VL: SELTQDPAVSVALGQTVSITCQGDSLRSYYASWYQQKPGQAPLLVIYGENNRPSGIPDRFSGSSSGNTASLTITGAQAEDEADYYCNSRDSSGTHLTVFGGGTKLTVLG
notes: soluble scFv with C-terminal (His)6 tag in the immunoprecipitation; also called anti-EphA2 phage D2-1A7
B5: binds [6]; binds [7].

B6: anti-EphA2 human scFv D2-1B1 (scFv, V domains shown)
VH: QVQLQESGGGVVQPGRSLRLSCAASGFTFSSYGMHWVRQAPGKGLEWVAVISYDGSNKYYADSVKGRFTISRDNSKNTLYLQMNSLRAEDTAVYYCAKVIAGGAYYGSADYWGQGTLVTVSS
VL: SELTQDPAVSVALGQTVKITCQGDSLRTYYASWYQQKPGQAPVLVIYGENSRPSGIPDRFSGSSSGNTASLTITGAQAEDEADYYCHSRDSSGTHLRVFGGGTKLTVLG
B6: binds [6]; binds [7].

B7: anti-CD44 human scFv F2-1A6 (scFv, V domains shown)
VH: QVQLVQSGAEVKKPGESLKISCKGSGYSFTSYWIGWVRQMPGKGLEWMGIIYPGDSDTRYSPSFQGQVTISADKSISTAYLQWSSLKASDTAMYYCARRLHGPFYFDYWGQGTLVTVSS
VL: SELTQDPAVSVALGQTVRITCQGDSLRSYYASWYQQKPGQAPLLVIYGKNIRPSGIPDRFSGSSSGNTASLTITGAQAEDEADYYCNSRDSSGNHVVFGGGTKLTVLG
notes: soluble scFv with C-terminal (His)6 tag in the immunoprecipitation; also called anti-CD44 phage F2-1A6
B7: binds [8].

B8: 1A12 (scFv)
scFv: QVQLQESGGGLVQPGGFLRLSCAASGFTFSSYGMHWVRQTPGKGLEWVSYISSSSSYTNYADSVKGRFTISRDNSKNTLYLQMNSLRAEDTAVYYCARDNWYFDLWGRGTLVTVSSGGGGSGGGGSGGGGSDVVMTQSPSTLSASVGDRVSITCRASESISRWLAWYQQKPGKAPKALIYKASSLESGVPSRFSGSGSATEFTLTINSLQPDDFATYYCQQYSSYPLTFGQGTKVDIKR
notes: also called phagemid antibody 1A12
B8: binds [9].

B9: recombinant mouse Ephrin A1 with human Fc fusion protein (R&D Systems) (Fc fusion, UniProt P52793 19-182, looked up)
chain: DRHIVFWNSSNPKFREEDYTVHVQLNDYLDIICPHYEDDSVADAAMERYTLYMVEHQEYVACQPQSKDQVRWNCNRPSAKHGPEKLSEKFQRFTPFILGKEFKEGHSYYYISKPIYHQESQCLKLKVTVNGKITHNPQAHVNPQEKRLQADDPEVQVLHSIGYS
notes: Bought reagent; also called rEphrinA1-human Fc fusion protein; not shown: human Fc
With B9 the “fold difference between the IC50 of ephrin A1 against D2-1A7 and against D2-1A9” value [10] was 9 fold.

B10: anti-EphA2 human scFv D2-1A9 (scFv, V domains shown)
VH: QVQLVESGGGLIQPGGSLKLSCAASGFTVSNSYMSWVRQAPGKGLEWVAVIYSAGNTYYADSVKGRFTISRDTSNNTVHLQMNSLRPEDTAVYYCAREGSFGYDYRGQGTLVTVSS
VL: DIVMTQSPGTLSLSPGERATLSCRASQSVSSSFLGWYQQKPGQAPRLLIYGASSRATGIPDRFSGSGSGTDFTLTISRLEPEDFAVYYCQQYGISPLTFGGGTKVEIKR
notes: also called anti-EphA2 phage D2-1A9
B10: binds [6]; binds [7].
